Changes are numbered by the printed parent chain.
B1: Hu149-23 (antibody, human IgG1, V domains shown)
VH: EVQLVESGGGLVQPGGSLKLSCAASGFTFNTYAMNWVRQAPGKGLEWVGRIRSKSNFYATAYAASVKGRFTISRDDSKNTAYLQMNSLKTEDTAVYYCTRGREYGSSYAMDYWGQGTLVTVSS
VL: DIVMTQSPLSLPVTPGEPASISCRSSKSLLHSNANTYLYWFLQKPGQSPQLLIYRMSNLASGVPDRFSGSGSGTDFTLKISRVEAEDVGVYYCMQHLKYPLTFGGGTKVELK
notes: human IgG1
B2: Hu149-24 (antibody, human IgG1, V domains shown)
VH: B1 VH with R102K
VL: B1 VL
notes: human IgG1
B3: Hu149-22 (antibody, human IgG1, V domains shown)
VH: B1 VH with P41S, S107A
VL: B1 VL
notes: human IgG1
B4: 149F2C10_G29A (antibody, V domains shown)
VH: EVQLVESGGGLVQPKGSLKLSCAASGFTFNTYAMNWVRQAPGKGLEWVARIRSKSNFYATYYADSVKDRFTISRDDSQDMLYLQMNILKTEDTAIYYCVRGRDYGSSYAMDYWGQGTSVTVSS
VL: DIVMTQAAPSVPVTPGESVSISCRSSKSLLHSNANTYLYWFLQRPGQSPQLLIYRMSNLASGVPDRFSGSGSGTAFTLRISRVEAEDVGVYYCMQHLEYPLTFGAGTKLELK
notes: NG site removed variant of 149F2C10
B5: 149F2C10-CHO (antibody, V domains shown)
VH: B4 VH
VL: B4 VL with A34G
notes: The suffix -CHO is not explained
B6: 149F2C10_N28Q (antibody, V domains shown)
VH: B4 VH
VL: B4 VL with N33Q, A34G
notes: NG site removed variant of 149F2C10; detected with anti-mouse IgG
B7: 149F2C10_G29I (antibody, V domains shown)
VH: B4 VH
VL: B4 VL with A34I
notes: as for B4
B8: 149F2C10_G29V (antibody, V domains shown)
VH: B4 VH
VL: B4 VL with A34V
notes: as for B4
B9: 149F2C10_N28I (antibody, V domains shown)
VH: B4 VH
VL: B4 VL with N33I, A34G
notes: as for B4
B10: 149F2C10_N28S (antibody, V domains shown)
VH: B4 VH
VL: B4 VL with N33S, A34G
notes: as for B4
B11: Hu149-1 (antibody, V domains shown)
VH: B1 VH with P41S, A61Y, T99V, E103D
VL: B1 VL with K98E
notes: humanized IgG, detected with anti-human IgG
B12: Hu149-3 (antibody, V domains shown)
VH: B1 VH with P41S, T99V, E103D
VL: B1 VL with K98E
notes: humanized IgG
B13: Hu149-5 (antibody, V domains shown)
VH: B1 VH with P41S, A61Y, T99V, E103D
VL: B1 VL with F41Y, K98E
notes: humanized IgG
B14: Hu149-2 (antibody, V domains shown)
VH: B1 VH with N35H, P41S, A61Y, T99V, E103D
VL: B1 VL with K98E
notes: humanized IgG

biological target: T1, human CCR8 (human, UniProt P51685 1-355); experiment: FACS on HuT78 cells (endogenous human CCR8)
T1 construct: whole, on cells; also called hCCR8
T1 sequence (P51685 whole entry): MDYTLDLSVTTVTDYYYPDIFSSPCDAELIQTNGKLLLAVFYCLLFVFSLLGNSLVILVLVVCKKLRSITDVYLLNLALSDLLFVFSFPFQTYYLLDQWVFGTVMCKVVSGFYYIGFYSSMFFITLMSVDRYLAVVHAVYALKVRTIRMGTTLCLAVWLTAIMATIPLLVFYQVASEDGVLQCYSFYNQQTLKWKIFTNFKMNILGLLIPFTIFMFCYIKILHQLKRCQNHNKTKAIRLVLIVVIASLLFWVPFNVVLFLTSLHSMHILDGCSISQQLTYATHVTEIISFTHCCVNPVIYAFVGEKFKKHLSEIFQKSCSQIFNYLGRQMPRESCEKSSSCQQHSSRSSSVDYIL
Method: HuT78 cells expressing endogenous human CCR8 were used for determining binding affinities of selected affinity matured anti-CCR8 antibodies. Briefly, a total of […] cells for each well were seeded in 96-well plates and washed with FACS buffer (DPBS containing […]) for once. […] Cells were incubated with 50 μL of diluted antibodies at 4° C. for 1 hour. After primary antibody incubation, cells were washed for 3 times by FACS buffer. Then, cells were stained by Alexa Fbu647 labeled anti-human IgG secondary antibody (Jackson ImmunoResearch, #109606170) at 1:600 dilution in FACS buffer for 0.5 hour at 4° C. After 3 times washed, flow cytometry (Sartourius, iQue3) was performed to measure the binding affinities of antibodies. […]

Row | Binder | Max MFI [MFI]
1 | B1 | 161000
2 | B2 | 198000
3 | B3 | 173000

biological target: T1, human CCR8; experiment: FACS, competition with AF647-human CCL1 on CHO-K1-human CCR8 cells
Method: Blocking curves were generated to rank the blocking activities of PTM sites removed antibodies. Briefly, a total of 5×10⁴ CHO-K1-human CCR8 cells for each well were seeded in 96-well plate. Cells were incubated by series diluted purified hybridoma antibodies and 4 nM AF647 labeled human CCL1 (Almac, #CAF-07) for 1 hour at 4° C. Antibodies were prepared with 3-fold serial dilution ranging from 100 nM to 0.0051 nM in FACS buffer. Then, cells were washed by FACS buffer for three times after incubation. […] FlowJo software was used for analysis. Data was plotted as the logarithm of antibody concentration versus mean fluorescence signals. IC₅₀ values were determined in GraphPad Prism 8 (GraphPad Software) using a log(agonist) vs. response-Variable slope (4 parameters) curve fit.

Row | Binder | IC50 [nM] | Max Inhibition (%)
4 | B4 | 0.725 | 77.5
5 | B5 | 0.934 | 80.1
6 | B6 | 3.07 | 55.7
7 | B7 | 1.09 | 70.7
8 | B8 | 1.04 | 72
9 | B9 | 2.25 | 65.3
10 | B10 | 15 | 44.9

biological target: T2, cynomolgus CCR8 (cynomolgus, UniProt G7NYJ2 1-355); experiment: FACS on HEK293-cynomolgus CCR8 cells
T2 construct: whole, on cells
T2 sequence (G7NYJ2 entry or part of it): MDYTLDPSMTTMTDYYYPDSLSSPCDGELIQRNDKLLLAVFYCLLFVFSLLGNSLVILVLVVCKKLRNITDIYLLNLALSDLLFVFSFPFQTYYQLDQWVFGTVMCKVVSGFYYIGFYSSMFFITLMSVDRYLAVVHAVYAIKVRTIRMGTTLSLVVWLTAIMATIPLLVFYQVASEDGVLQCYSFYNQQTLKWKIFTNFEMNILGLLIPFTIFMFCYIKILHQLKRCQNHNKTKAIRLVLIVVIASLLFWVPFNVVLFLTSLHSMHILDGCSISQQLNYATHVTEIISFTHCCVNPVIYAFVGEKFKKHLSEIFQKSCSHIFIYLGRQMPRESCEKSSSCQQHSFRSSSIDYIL

Row | Binder | EC50 [nM] | Max MFI [MFI]
11 | B1 | 0.369 | 4.32e+06
12 | B2 | 0.161 | 3.9e+06
13 | B3 | 0.462 | 4.25e+06

biological target: T1, human CCR8; experiment: FACS, competition with CCL1 on CHO-K1-human CCR8 cells

Row | Binder | IC50 [nM] | Max Inhibition (%)
14 | B1 | 0.259 | 103
15 | B2 | 0.172 | 106
16 | B3 | 0.459 | 101

biological target: T2, cynomolgus CCR8; experiment: FACS on HEK293-cynomolgus CCR8 cells; remark: another data set of the same source
Method: (§1) A total of 5×10⁴ cells for each well were seeded in 96-well plates and washed with FACS buffer (DPBD containing 1.5% FBS) for once. Antibodies were prepared with 3-fold serial dilution ranging from 100 nM to 0.0017 nM in FACS buffer. Cells were incubated with 50 μL of diluted antibodies at 4° C. for 1 hour. […] After primary antibody incubation, cells were washed for 3 times by FACS buffer. Then, cells were stained by Alexa Flu647 labeled anti-human IgG secondary antibody (Jackson ImmunoResearch, #109606170) or Alexa Flu647 labeled anti-mouse IgG secondary antibody (Jackson ImmunoResearch, #115605072) at 1:600 dilution in FACS buffer for 0.5 hour at 4° C. After washed for 3 times, Flow cytometry was performed to measure the binding.

Row | Binder | EC50 [nM] | Max MFI [MFI]
17 | B11 | 0.578 | 20900
18 | B12 | 0.205 | 19900
19 | B13 |  | 414
20 | B14 | 146 | 1550

biological target: T2, cynomolgus CCR8; experiment: FACS on HEK293-cynomolgus CCR8 cells; remark: another data set of the same source
Method: (§2) Binding affinities of NG site removed antibodies were determined on human CCR8 and cynomolgus CCR8 overexpression cells. Briefly, CFSE labeled HEK293-human CCR8 cells or CFSE labeled HEK293-cynomolgus CCR8 cells were mixed with HEK293 cells. The mixed ratio was 1:1. A total of 5×10⁴ mixed cells for each well were seeded in 96-well plates and washed by FACS buffer (DPBS containing 1% FBS) once. Cells were incubated by serial diluted purified hybridoma antibodies for 1 hour at 4° C. Antibodies were prepared with 3-fold serial dilution ranging from 100 nM to 0.0017 nM or from 25.3165 nM to 0.0004 nM in FACS buffer. […] After primary antibody incubation, cells were washed by FACS buffer for three times. Then, cells were stained with secondary antibody (Alexa Flu647-conj gated rabbit anti-mouse IgG, Jackson ImmunoResearch, #315606046) at 1:600 dilution in FACS buffer, incubated for 0.5 hour at 4° C. […] FlowJo software was used for analysis. Data was plotted as the logarithm of antibody concentration versus mean fluorescence signals. EC₅₀ values were calculated in GraphPad Prism 8 (GraphPad Software) using a log (agonist) vs. response-Variable slope (4 parameters) curve fit.

Row | Binder | EC50 [nM] | Max MFI [MFI]
21 | B4 | 0.173 | 4720
22 | B5 | 0.131 | 3310
23 | B6 | 0.209 | 2450
24 | B7 | 0.19 | 4640
25 | B8 | 0.211 | 4680
26 | B9 | 0.314 | 1890
27 | B10 | 0.333 | 2020

biological target: T1, human CCR8; experiment: FACS on HEK293-human CCR8 cells
Method: as §1

Row | Binder | EC50 [nM] | Max MFI [MFI]
28 | B11 | 0.534 | 7610
29 | B12 | 0.193 | 7000
30 | B13 | 15 | 2470
31 | B14 | 3.48 | 1120

biological target: T1, human CCR8; experiment: FACS on CHO-K1-human CCR8 cells

Row | Binder | EC50 [nM] | Max MFI [MFI]
32 | B1 | 0.265 | 816000
33 | B2 | 0.166 | 844000
34 | B3 | 0.216 | 793000

biological target: T1, human CCR8; experiment: FACS on HEK293-human CCR8 cells; remark: another data set of the same source
Method: as §2

Row | Binder | EC50 [nM] | Max MFI [MFI]
35 | B4 | 0.129 | 2040
36 | B5 | 0.142 | 1740
37 | B6 | 0.161 | 1640
38 | B7 | 0.146 | 2060
39 | B8 | 0.194 | 1900
40 | B9 | 0.244 | 1650
41 | B10 | 0.21 | 1420

biological target: T1, human CCR8; experiment: FACS, competition with AF647-human CCL1 on CHO-K1-human CCR8 cells; remark: another data set of the same source

Row | Binder | IC50 [nM] | Max Inhibition (%)
42 | B11 | 0.936 | 99.2
43 | B12 | 0.478 | 99.2
44 | B13 | 49.6 | 57.3
45 | B14 | 12.5 | 39.5

— patent US20250034266A1 (ZAI LAB SHANGHAI, published 2025)
